Consider four molecules from publication PMC10090351, “DNA accelerates the protease inhibition of a bacterial serpin chloropin” (Frontiers in Molecular Biosciences, 2023).

Test [1] has as its target thrombin (UniProt P00734).
Test [2] concerns the target thrombin (UniProt P00734). The source holds these as a separate data set.
Test [3] has as its target thrombin (UniProt P00734). This is another data set of the same source.
Another test has as its target kallikrein 7 (UniProt P49862 30-253). The test is described as follows: cell-based or functional assay.
Test [4] concerns the target thrombin (UniProt P00734). The source holds these as a separate data set.
Test [5] concerns the target thrombin (UniProt P00734). The source holds these as a separate data set.

Chain of kallikrein 7 (P49862 30-253): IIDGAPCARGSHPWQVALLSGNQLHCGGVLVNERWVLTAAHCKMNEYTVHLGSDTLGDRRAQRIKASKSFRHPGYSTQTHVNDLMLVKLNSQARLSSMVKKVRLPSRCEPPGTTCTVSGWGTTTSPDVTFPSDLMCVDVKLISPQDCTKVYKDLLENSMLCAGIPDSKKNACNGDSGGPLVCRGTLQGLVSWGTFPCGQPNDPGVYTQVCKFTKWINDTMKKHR

In the test with thrombin [1], Chloropin K268D/K269D (natural protein) returned a k obs of thrombin inhibition, 375 nM chloropin variant, 75 nM thrombin, with 0.8 nM linear plasmid DNA of 0.0041 s⁻¹; a k obs of thrombin inhibition, 375 nM chloropin variant, 75 nM thrombin, without linear plasmid DNA of 0.0035 s⁻¹; a k obs of thrombin inhibition, 1 uM chloropin variant, 0.1 uM thrombin, with 0.1 uM heparin of 0.0096 s⁻¹; a k obs of thrombin inhibition, 1 uM chloropin variant, 0.1 uM thrombin, without heparin of 0.0083 s⁻¹.

In the test with thrombin [1], Chloropin K119D (natural protein) had a k obs of thrombin inhibition, 375 nM chloropin variant, 75 nM thrombin, with 0.8 nM linear plasmid DNA of 0.0055 s⁻¹; a k obs of thrombin inhibition, 375 nM chloropin variant, 75 nM thrombin, without linear plasmid DNA of 0.0038 s⁻¹; a k obs of thrombin inhibition, 1 uM chloropin variant, 0.1 uM thrombin, with 0.1 uM heparin of 0.0555 s⁻¹; a k obs of thrombin inhibition, 1 uM chloropin variant, 0.1 uM thrombin, without heparin of 0.0095 s⁻¹.

In the case of Chloropin K126D/K127D (natural protein), in the test with thrombin [1], the k obs of thrombin inhibition, 375 nM chloropin variant, 75 nM thrombin, with 0.8 nM linear plasmid DNA is 0.0035 s⁻¹; the k obs of thrombin inhibition, 375 nM chloropin variant, 75 nM thrombin, without linear plasmid DNA was 0.0036 s⁻¹; the k obs of thrombin inhibition, 1 uM chloropin variant, 0.1 uM thrombin, with 0.1 uM heparin came to 0.0107 s⁻¹; the k obs of thrombin inhibition, 1 uM chloropin variant, 0.1 uM thrombin, without heparin was determined as 0.0086 s⁻¹.

B1: chloropin (natural protein, Chlorobium limicola, UniProt B3ECZ8 54-420, looked up)
chain: ELAVDLYRNLAVTGKNLFFSPSSIETALSMTMSGARNRTERQMADVMHVGPDAMERHHAGLASFEKQLESIQKKGKVTIASSNSIWPQKNYPLAPSWLAQLKRYYGTSVTPVDYIHETEKARIAINRRVEKDTKNRIRELLKPGILDPLTRLALVNAVYFKGDWEHPFNENNTVASPFYIRQGTTGKAPLMRQSASFGYGDHDGVQVLELPYAGKKLSMIVVLPKERFGLEALEKTLTPKQFALWTANLSERKIEALLPKFRTTSAFRLDETLRHMGMTDAFDRNLADFSGMVSNSDKLYIGAVVHKAFVDVGEKGTEAAAATAVVMQLRSAMPMPVPVFKADHPFLFAIRENSTGRILFMGRISDP
Turning to B1, in the test with thrombin [2], the fold increase of k obs of thrombin inhibition with low molecular weight heparin (series of concentrations, bell-shaped; 5.9-fold at 0.1 uM, maximum at 0.5 uM) is 17.2 fold. Moreover, in the test with thrombin [3], the k 2, derived second-order inhibition rate constant was determined as 25000 M⁻¹ s⁻¹; the k app, apparent second-order rate constant of thrombin inhibition (residual protease activity) was 14700 M⁻¹ s⁻¹; the stoichiometry of inhibition (SI), residual thrombin activity after 12 h with 0-2 uM chloropin amounted to 1.68. For the same molecule, the “stoichiometry of inhibition (SI), residual KLK7 activity after 12 h with 0-2 uM chloropin” value with kallikrein 7 is 1.55. For the same molecule, in the test with thrombin [4], the fold increase of the rate of thrombin inhibition with linear DNA (series of concentrations; maximum around 2.4-4.8 nM) was found to be 142 fold; the fold increase of the rate of thrombin inhibition with supercoiled plasmid DNA (0.05-25.6 nM, bell-shaped; 1.5-fold at 0.1 nM, maximum between 1.6 and 3.2 nM) came to 74 fold. Besides, the second order rate constant of thrombin inhibition with DNA with thrombin [5] amounted to 3.6e+06 M⁻¹ s⁻¹. In the test with thrombin [1], this molecule displayed a k obs of thrombin inhibition, 375 nM chloropin, 75 nM thrombin, with 0.8 nM linear plasmid DNA of 0.0142 s⁻¹; a k obs of thrombin inhibition, 375 nM chloropin, 75 nM thrombin, with supercoiled plasmid DNA of 0.0193 s⁻¹; a k obs of thrombin inhibition, 375 nM chloropin, 75 nM thrombin, without linear plasmid DNA of 0.0035 s⁻¹; a k obs of thrombin inhibition, 375 nM chloropin, 75 nM thrombin, without supercoiled plasmid DNA of 0.0035 s⁻¹. In the test with thrombin [1], the k obs of thrombin inhibition, 1 uM chloropin, 0.1 uM thrombin, with 0.1 uM heparin worked out at 0.0667 s⁻¹ and the k obs of thrombin inhibition, 1 uM chloropin, 0.1 uM thrombin, without heparin came to 0.0083 s⁻¹.
